# In patent US20130156706A1 (BRACCO SUISSE S A, published 2013):
# T1: mouse Fc P-Selectin (CD62P-Fc Chimera, from R&D Systems) (mouse, UniProt Q01102 42-709)
# T1 construct: Bought reagent, coated in the flow chamber; also called mouse P-selectin; not shown: Fc part of the commercial chimera
# T1 sequence (looked up): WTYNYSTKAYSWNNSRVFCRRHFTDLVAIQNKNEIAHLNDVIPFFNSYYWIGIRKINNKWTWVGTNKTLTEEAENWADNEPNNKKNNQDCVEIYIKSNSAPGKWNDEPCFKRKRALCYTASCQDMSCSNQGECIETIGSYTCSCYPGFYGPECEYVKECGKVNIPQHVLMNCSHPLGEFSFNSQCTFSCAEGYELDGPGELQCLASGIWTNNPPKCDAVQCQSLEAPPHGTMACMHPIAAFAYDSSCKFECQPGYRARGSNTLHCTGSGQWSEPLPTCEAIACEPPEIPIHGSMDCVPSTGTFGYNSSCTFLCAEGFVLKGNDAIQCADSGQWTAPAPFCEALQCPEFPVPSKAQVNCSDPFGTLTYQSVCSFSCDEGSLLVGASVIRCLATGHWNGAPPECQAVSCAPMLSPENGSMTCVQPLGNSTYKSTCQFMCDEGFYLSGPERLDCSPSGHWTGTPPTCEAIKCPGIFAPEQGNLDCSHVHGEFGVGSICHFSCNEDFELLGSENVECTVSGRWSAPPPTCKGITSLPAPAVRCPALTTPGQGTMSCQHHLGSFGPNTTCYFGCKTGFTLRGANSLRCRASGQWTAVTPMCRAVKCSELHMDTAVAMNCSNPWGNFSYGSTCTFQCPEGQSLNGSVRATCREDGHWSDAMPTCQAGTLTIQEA
# Biological target: T1, mouse Fc P-Selectin (CD62P-Fc Chimera, …)
# Assay: flow chamber adhesion of microvesicles on a mouse P-selectin-Fc coating
# Description: To test the effective binding, targeted microvesicles prepared according to comparative example 4 were injected in a flow chamber set up comprising a coating of mouse Fc P-Selectin (CD62P-Fc Chimera, from R&D Systems (Minneapolis, Minn., USA). Microvesicles (at equivalent number of 80×10⁶/400 μL TBS++) were injected through the flow chamber (FCS2, Bioptech, USA) in a bolus fashion and their adhesion onto the mouse P-selectin coating layer was assessed over a period of 10 min at a flow rate of 1.0 mL/min (shear rate of 714 s⁻¹) in the presence of 50% human plasma in PBS (v:v, Biomeda collected on citrate, ref. ES1020P, Stehelin & Cie AG). A quantitative analysis of microvesicles accumulation was performed by counting the number of microvesicles adhering in the observed area at 2 min intervals over the total 10 min infusion, using the image processing program Analysis FIVE (SIS, Germany). After 10 min, five pictures were taken randomly and the number of bound microvesicles was measured and expressed as the number of bound bubbles at 10 min (NBB). Each observed area was 183×137 μm, as measured with the aid of a stage micrometer. Measurement was performed between the middle and the exit of the chamber.
# Similarly, suspensions of targeted microvesicles prepared according to example 6 (Fr-1 targeting ligand) and according to example 8 (monomeric FR-1) were injected in a flow chamber as described above, and their binding activity determined according to the above procedure.
row,binding result,Binder
1,binds,"rPSGL-Ig (glycosylated SEQ ID NO: 4), thiolated and bound to DSPE-PEG-maleimide on gas-filled microvesicles (Example 4) (Fc fusion, glycosylated; amino groups thiolated with Traut reagent (2-iminothiolane) and coupled to DSPE-PEG-maleimide of the microvesicle envelope, also called recombinant PSGL-Ig; dimPSGL-1) QATEYEYLDYDFLPETEPPEMLRNSTDTTPLTGPGTPESTTVEPAARPHTCPPCPAPEALGAPSVFLFPPKPKDTLMISRTPEVTCVVVDVSHEDPEVKFNWYVDGVEVHNAKTKPREEQYNSTYRVVSVLTVLHQDWLNGKEYKCKVSNKALPVPIEKTISKAKGQPREPQVYTLPPSREEMTKNQVSLTCLVKGFYPSDIAVEWESNGQPENNYKTTPPVLDSDGSFFLYSKLTVDKSRWQQGNVFSCSVMHEALHNHYTQKSLSLSPGK"
2,binds,"Fr-1, purified fragment of rPSGL-Ig (SEQ ID NO:3), dimeric, thiolated and bound to DSPE-PEG-maleimide on gas-filled microvesicles (Example 6) (other, glycosylated (fragment of glycosylated rPSGL-Ig); thiolated with SATA and deacetylated, then coupled to DSPE-PEG-maleimide of the microvesicle envelope, Disulfide-linked homodimer, about 32 kDa by MALDI-ToF; also called dimeric Fr-1) QATEYEYLDYDFLPETEPPEMLRNSTDTTPLTGPGTPESTTVEPAARPHTCPPCPAPEALGAPSVFLFPPK"
3,binds,"Monomeric Fr-1 (Fr-1 of SEQ ID NO:3 reduced with TCEP) bound to DSPE-PEG-maleimide on gas-filled microvesicles (Example 8) (other, glycosylated (fragment of glycosylated rPSGL-Ig); disulfide bonds reduced with TCEP, free cysteine thiols coupled to DSPE-PEG-maleimide of the microvesicle envelope, also called reduced monomeric Fr-1) QATEYEYLDYDFLPETEPPEMLRNSTDTTPLTGPGTPESTTVEPAARPHTCPPCPAPEALGAPSVFLFPPK"
